{"source": "paper PMC6328252", "about": "(Chembiochem : a European journal of chemical biology, 2017)", "molecules": {"B1": {"name": "PA1618 (Pseudomonas aeruginosa PAO1) (protein)", "chain": "MSLWRQTPDLEQLNASQKNSIGDLLGIRFEAFDDESLTASMPVDSRTHQPFGLLHGGASVVLAESLGSMASYLCVDTSQYYCVGLEVNANHLRGLRSGRVTAVARAIHLGRTTHVWDIRLSGDDGKPSCIARLTMAVVPLAGRAG"}}, "key": {"PA1618 [1]": {"target": "T1, PA1618 (Pseudomonas aeruginosa, UniProt Q9I3A4)", "experiment": "X-ray crystal structure", "format": "biochemical"}, "PA1618 [2]": {"target": "T1, PA1618", "experiment": "steady-state competitive inhibition of benzoyl-CoA hydrolysis", "format": "biochemical"}, "PA1618 [3]": {"target": "T1, PA1618", "experiment": "X-ray crystal structure", "format": "biochemical", "remark": "listed apart in the source"}, "[4]": {"test_system": "CC(C)(COP(=O)(O)OP(=O)(O)OC[C@H]1O[C@@H](n2cnc3c(N)ncnc32)[C@H](O)[C@@H]1OP(=O)(O)O)[C@@H](O)C(=O)NCCC(=O)NCCSC(=O)c1ccccc1", "experiment": "steady-state kinetics", "format": "biochemical, Pseudomonas aeruginosa", "conditions": "pH 7.5; 25.0 °C"}, "purified protein": {"substrate": "CC(C)(COP(=O)(O)OP(=O)(O)OC[C@H]1O[C@@H](n2cnc3c(N)ncnc32)[C@H](O)[C@@H]1OP(=O)(O)O)[C@@H](O)C(=O)NCCC(=O)NCCSC(=O)c1ccc(O)cc1", "experiment": "purified protein", "format": "biochemical, Pseudomonas aeruginosa", "conditions": "pH 7.5; 25.0 °C"}, "steady-state kinetics [5]": {"substrate": "CCCCCC(=O)SCCNC(=O)CCNC(=O)[C@H](O)C(C)(C)COP(=O)(O)OP(=O)(O)OC[C@H]1O[C@@H](n2cnc3c(N)ncnc32)[C@H](O)[C@@H]1OP(=O)(O)O", "experiment": "steady-state kinetics", "format": "biochemical, Pseudomonas aeruginosa", "conditions": "pH 7.5; 25.0 °C"}, "steady-state kinetics [6]": {"substrate": "CC(C)(COP(=O)(O)OP(=O)(O)OC[C@H]1O[C@@H](n2cnc3c(N)ncnc32)[C@H](O)[C@@H]1OP(=O)(O)O)[C@@H](O)C(=O)NCCC(=O)NCCSC(=O)c1cc(O)c2ccccc2c1O", "experiment": "steady-state kinetics", "format": "biochemical, Pseudomonas aeruginosa", "conditions": "pH 7.5; 25.0 °C"}, "steady-state kinetics [7]": {"substrate": "CC(C)(COP(=O)(O)OP(=O)(O)OC[C@H]1O[C@@H](n2cnc3c(N)ncnc32)[C@H](O)[C@@H]1OP(=O)(O)O)[C@@H](O)C(=O)NCCC(=O)NCCSC(=O)/C=C/c1ccc(O)cc1", "experiment": "steady-state kinetics", "format": "biochemical, Pseudomonas aeruginosa", "conditions": "pH 7.5; 25.0 °C"}, "steady-state kinetics [8]": {"substrate": "CC(C)(COP(=O)(O)OP(=O)(O)OC[C@H]1O[C@@H](n2cnc3c(N)ncnc32)[C@H](O)[C@@H]1OP(=O)(O)O)[C@@H](O)C(=O)NCCC(=O)NCCSC(=O)c1ccccc1", "experiment": "steady-state kinetics", "format": "biochemical, Pseudomonas aeruginosa", "conditions": "pH 7.5; 25.0 °C", "remark": "listed apart in the source"}}}
{"molecule": "CC(C)(COP(=O)(O)OP(=O)(O)OC[C@H]1O[C@@H](n2cnc3c(N)ncnc32)[C@H](O)[C@@H]1O)[C@@H](O)C(=O)NCCC(=O)NCCOC(=O)c1ccccc1", "note": "[Benzoyl-OdCoA]", "values": [{"measurement": "Ki", "setting": "PA1618 [1]", "result": "19 ± 3", "unit": "µM"}]}
{"molecule": "CCCCCCCCCCC(=O)SCCNC(=O)CCNC(=O)[C@H](O)C(C)(C)COP(=O)(O)OP(=O)(O)OC[C@H]1O[C@@H](n2cnc3c(N)ncnc32)[C@H](O)[C@@H]1OP(=O)(O)O", "note": "[Undecanyl-CoA]", "values": [{"measurement": "Ki", "setting": "PA1618 [2]; read-out: PA1618 Ki", "result": "3.4 ± 0.3", "unit": "µM"}]}
{"molecule": "CC(C)(COP(=O)(O)OP(=O)(O)OC[C@H]1O[C@@H](n2cnc3c(N)ncnc32)[C@H](O)[C@@H]1OP(=O)(O)O)[C@@H](O)C(=O)NCCC(=O)NCCSCC(=O)c1ccc(O)cc1O", "note": "[2,4-Dihydroxyphenacyl-CoA]", "values": [{"measurement": "Ki", "setting": "PA1618 [2]", "result": "12 ± 1", "unit": "µM"}]}
{"molecule": "CC(C)(COP(=O)(O)OP(=O)(O)OC[C@H]1O[C@@H](n2cnc3c(N)ncnc32)[C@H](O)[C@@H]1OP(=O)(O)O)[C@@H](O)C(=O)NCCC(=O)NCCSCC(=O)c1ccccc1", "note": "[Phenacyl-CoA]", "values": [{"measurement": "Ki", "setting": "PA1618 [3]", "result": "35 ± 5", "unit": "µM"}]}
{"molecule": "PA1618 (Pseudomonas aeruginosa PAO1; Q49A)", "values": [{"measurement": "Km", "setting": "[4]", "result": "5.0 ± 0.3", "unit": "µM"}, {"measurement": "kcat", "setting": "[4]", "result": "0.022 ± 0.003", "unit": "s⁻¹"}, {"measurement": "kcat/Km", "setting": "[4]", "result": 4400, "unit": "M⁻¹ s⁻¹"}]}
{"molecule": "B1", "values": [{"measurement": "Km", "setting": "purified protein", "result": "3.6 ± 0.3", "unit": "µM"}, {"measurement": "kcat", "setting": "purified protein", "result": "9.3 ± 0.2", "unit": "s⁻¹"}, {"measurement": "kcat/Km", "setting": "purified protein", "result": "3.1e+06", "unit": "M⁻¹ s⁻¹"}, {"measurement": "Km", "setting": "steady-state kinetics [5]", "result": "20 ± 2", "unit": "µM"}, {"measurement": "kcat", "setting": "steady-state kinetics [5]", "result": "0.11 ± 0.01", "unit": "s⁻¹"}, {"measurement": "kcat/Km", "setting": "steady-state kinetics [5]", "result": 5200, "unit": "M⁻¹ s⁻¹"}, {"measurement": "Km", "setting": "steady-state kinetics [6]", "result": "2.1 ± 0.1", "unit": "µM"}, {"measurement": "kcat", "setting": "steady-state kinetics [6]", "result": "0.55 ± 0.01", "unit": "s⁻¹"}, {"measurement": "kcat/Km", "setting": "steady-state kinetics [6]", "result": 280000, "unit": "M⁻¹ s⁻¹"}, {"measurement": "Km", "setting": "steady-state kinetics [7]", "result": "2.7 ± 0.2", "unit": "µM"}, {"measurement": "kcat", "setting": "steady-state kinetics [7]", "result": "2.5 ± 0.1", "unit": "s⁻¹"}, {"measurement": "kcat/Km", "setting": "steady-state kinetics [7]", "result": 930000, "unit": "M⁻¹ s⁻¹"}, {"measurement": "Km", "setting": "steady-state kinetics [8]", "result": "12 ± 1", "unit": "µM"}, {"measurement": "kcat", "setting": "steady-state kinetics [8]", "result": "56 ± 1", "unit": "s⁻¹"}, {"measurement": "kcat/Km", "setting": "steady-state kinetics [8]", "result": "4.6e+06", "unit": "M⁻¹ s⁻¹"}]}
